Results as given in patent US20180011102.
Residue numbers refer to the chain shown, from its start. Names may count otherwise.

Experiments:
[1] = target: SUMO-PDHK1 (wild type), bacterially purified, Q15118
[2] = target: purified Beclin-1 S30A mutant, Q14457
[3] = target: T1, purified CDC45 S386A, O75419
T1 chain: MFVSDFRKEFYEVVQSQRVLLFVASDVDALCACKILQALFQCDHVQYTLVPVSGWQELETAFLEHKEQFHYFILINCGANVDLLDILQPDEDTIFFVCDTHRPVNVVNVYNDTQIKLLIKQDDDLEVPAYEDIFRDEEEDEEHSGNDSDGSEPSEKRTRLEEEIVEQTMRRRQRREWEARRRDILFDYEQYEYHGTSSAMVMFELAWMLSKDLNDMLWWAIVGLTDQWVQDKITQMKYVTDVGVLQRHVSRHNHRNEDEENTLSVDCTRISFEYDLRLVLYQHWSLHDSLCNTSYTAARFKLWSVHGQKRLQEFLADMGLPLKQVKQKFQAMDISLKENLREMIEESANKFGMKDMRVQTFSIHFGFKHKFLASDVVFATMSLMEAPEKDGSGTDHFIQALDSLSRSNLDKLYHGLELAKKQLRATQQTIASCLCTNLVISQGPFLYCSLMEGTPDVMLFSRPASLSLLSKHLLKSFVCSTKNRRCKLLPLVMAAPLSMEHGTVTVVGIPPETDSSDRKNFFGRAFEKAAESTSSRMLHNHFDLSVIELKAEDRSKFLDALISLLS

[4] = target: purified PDHK1 S337A, Q15118
[5] = target: purified PDHK1 T338A (pE-SUMO PDHK1 T338A), Q15118
[6] = target: purified wild-type Beclin-1, Q14457
[7] = target: T2, purified wild-type CDC45, O75419
T2 chain: T1 chain with A386S

Sequence of SUMO-PDHK1 (wild type), bacterially purified, Q15118 (Q15118 whole entry, looked up): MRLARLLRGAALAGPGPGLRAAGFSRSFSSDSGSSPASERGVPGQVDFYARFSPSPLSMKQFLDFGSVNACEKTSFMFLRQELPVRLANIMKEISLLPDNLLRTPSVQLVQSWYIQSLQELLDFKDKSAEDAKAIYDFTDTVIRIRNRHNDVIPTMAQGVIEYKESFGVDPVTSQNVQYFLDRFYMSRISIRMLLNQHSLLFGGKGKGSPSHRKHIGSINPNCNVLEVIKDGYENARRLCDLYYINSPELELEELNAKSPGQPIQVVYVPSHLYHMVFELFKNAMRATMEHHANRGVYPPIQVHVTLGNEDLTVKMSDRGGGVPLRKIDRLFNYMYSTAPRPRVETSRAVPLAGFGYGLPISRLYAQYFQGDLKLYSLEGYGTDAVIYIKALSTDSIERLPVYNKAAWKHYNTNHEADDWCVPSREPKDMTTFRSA
Sequence of purified PDHK1 T338A (pE-SUMO PDHK1 T338A), Q15118 (Q15118 whole entry T338A): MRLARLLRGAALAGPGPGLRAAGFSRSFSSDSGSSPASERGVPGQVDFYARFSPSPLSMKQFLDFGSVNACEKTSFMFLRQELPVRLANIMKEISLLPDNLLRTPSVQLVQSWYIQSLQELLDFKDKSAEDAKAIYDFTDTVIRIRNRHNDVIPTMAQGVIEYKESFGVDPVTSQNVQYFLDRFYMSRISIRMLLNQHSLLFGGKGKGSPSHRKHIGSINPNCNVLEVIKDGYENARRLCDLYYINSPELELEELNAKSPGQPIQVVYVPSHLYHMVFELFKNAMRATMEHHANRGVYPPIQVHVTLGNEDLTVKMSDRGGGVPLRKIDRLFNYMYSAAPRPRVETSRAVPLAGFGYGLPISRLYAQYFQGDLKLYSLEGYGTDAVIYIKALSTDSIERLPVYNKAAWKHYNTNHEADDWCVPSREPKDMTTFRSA
Sequence of purified wild-type Beclin-1, Q14457 (Q14457 whole entry, looked up): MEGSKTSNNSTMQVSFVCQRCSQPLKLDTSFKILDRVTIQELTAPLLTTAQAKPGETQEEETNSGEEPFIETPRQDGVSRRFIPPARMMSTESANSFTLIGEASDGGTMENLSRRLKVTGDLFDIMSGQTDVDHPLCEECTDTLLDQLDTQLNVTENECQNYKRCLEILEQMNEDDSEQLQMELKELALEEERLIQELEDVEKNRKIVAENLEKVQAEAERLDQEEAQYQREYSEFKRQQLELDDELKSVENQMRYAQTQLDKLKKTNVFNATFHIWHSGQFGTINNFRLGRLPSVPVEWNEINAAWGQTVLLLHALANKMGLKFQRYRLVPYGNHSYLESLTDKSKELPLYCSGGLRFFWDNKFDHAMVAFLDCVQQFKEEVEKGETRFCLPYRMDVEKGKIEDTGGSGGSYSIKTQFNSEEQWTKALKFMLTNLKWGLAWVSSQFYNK
Sequence of purified PDHK1 S337A, Q15118 (Q15118 whole entry S337A): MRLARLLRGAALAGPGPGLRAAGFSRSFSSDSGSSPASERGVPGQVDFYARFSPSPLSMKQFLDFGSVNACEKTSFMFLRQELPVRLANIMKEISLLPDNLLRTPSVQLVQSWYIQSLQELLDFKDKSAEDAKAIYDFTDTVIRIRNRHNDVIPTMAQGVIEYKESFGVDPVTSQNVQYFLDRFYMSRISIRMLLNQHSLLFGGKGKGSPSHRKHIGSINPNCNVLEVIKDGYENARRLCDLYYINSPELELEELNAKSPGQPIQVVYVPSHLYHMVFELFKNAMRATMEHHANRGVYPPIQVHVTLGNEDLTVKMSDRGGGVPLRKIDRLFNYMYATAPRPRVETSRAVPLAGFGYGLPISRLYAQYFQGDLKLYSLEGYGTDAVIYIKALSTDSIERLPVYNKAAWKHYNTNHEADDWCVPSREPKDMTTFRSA
Sequence of purified Beclin-1 S30A mutant, Q14457 (Q14457 whole entry S30A): as the sequence (Q14457 whole entry, looked up) above, with S30A counted along it

B1: His-PGK1 (wild type), bacterially purified, not phosphorylated (protein)
chain: MSLSNKLTLDKLDVKGKRVVMRVDFNVPMKNNQITNNQRIKAAVPSIKFCLDNGAKSVVLMSHLGRPDGVPMPDKYSLEPVAVELKSLLGKDVLFLKDCVGPEVEKACANPAAGSVILLENLRFHVEEEGKGKDASGNKVKAEPAKIEAFRASLSKLGDVYVNDAFGTAHRAHSSMVGVNLPQKAGGFLMKKELNYFAKALESPERPFLAILGGAKVADKIQLINNMLDKVNEMIIGGGMAFTFLKVLNNMEIGTSLFDEEGAKIVKDLMSKAEKNGVKITLPVDFVTADKFDENAKTGQATVASGIPAGWMGLDCGPESSKKYAEAVTRAKQIVWNGPVGVFEWEAFARGTKALMDEVVKATSRGCITIIGGGDTATCCAKWNTEDKVSHVSTGGGASLELLEGKVLPGVDALSNI
in vitro phosphorylation with [γ32P]-ATP, autoradiography and anti-phospho-PDHK1 T338 antibody [1]: WT PGK1, but not a PGK1 T378P kinase-dead mutant, was able to phosphorylate WT PDHK1, but not PDHK1 T338A | in vitro phosphorylation with [γ32P]-ATP, autoradiography and Western blot [2]: Beclin-1 S30A mutant was largely resistant to phosphorylation by PGK1 | in vitro phosphorylation with [γ32P]-ATP, autoradiography and Western blot [3]: Purified wild-type PGK1 but not PGK1 kinase-dead (KD) mutant phosphorylated purified wild-type CDC45, but not CDC45 S386A | in vitro phosphorylation with [γ32P]ATP, autoradiography [4]: mutation of the adjacent PDHK1 S337A had no effect on PGK1-mediated PDHK1 phosphorylation | in vitro phosphorylation with [γ32P]-ATP, autoradiography and anti-phospho-PDHK1 T338 antibody [5]: WT PGK1, but not a PGK1 T378P kinase-dead mutant, was able to phosphorylate WT PDHK1, but not PDHK1 T338A | in vitro phosphorylation with [γ32P]-ATP, autoradiography and Western blot [6]: Purified PGK1 phosphorylated purified wild-type Beclin-1 | in vitro phosphorylation with [γ32P]-ATP, autoradiography and Western blot [7]: Purified wild-type PGK1 but not PGK1 kinase-dead (KD) mutant phosphorylated purified wild-type CDC45, but not CDC45 S386A

B2: purified PGK1 T378P kinase-dead mutant (protein)
chain: B1 chain with T378P
in vitro phosphorylation with [γ32P]-ATP, autoradiography and anti-phospho-PDHK1 T338 antibody [1]: WT PGK1, but not a PGK1 T378P kinase-dead mutant, was able to phosphorylate WT PDHK1, but not PDHK1 T338A | in vitro phosphorylation with [γ32P]-ATP, autoradiography and Western blot [7]: Purified wild-type PGK1 but not PGK1 kinase-dead (KD) mutant phosphorylated purified wild-type CDC45, but not CDC45 S386A
